Assay results as given in article PMC10948894, “Cryo-EM structures of type IV pili complexed with nanobodies reveal immune escape mechanisms” (Nature Communications, 2024).
Residue numbers refer to the chain shown, from its start. Names and notes keep the numbering of the source.

Assays:
[1] = molecular target: type IV pili of N. meningitidis 8013, SB sequence type pilin PilE with GATDH on S63 and G3P on S69 (Neisseria meningitidis)
[2] = molecular target: type IV pili of N. meningitidis 8013, SB sequence type pilin PilE with GATDH on S63 and G3P on S69 (Neisseria meningitidis); assay: cryo-EM structure; purified pili 10 µg/ml with nanobody 50 µg/ml, vitrified at 4 °C; helical refinement
[3] = molecular target: T1, type IV pili of the N. meningitidis 8013 pglAON* strain (SB pilin with the GATDH-Gal double sugar on S63) (Neisseria meningitidis 8013 (serogroup …, strain, GATDH with a second sugar (galactose in position 3) on serine 63)); assay: immunostaining of cells or tissue; as a1 but nanobody 5 µg/ml and anti-His tag 17.5 µg/ml (experiments with C24_S112-114G, Fig. 7f and g); conditions: one partner purified
T1 construct: numbers count on: the mature protein; also called GATDH-GLA; GATDH-GAL variant
T1 chain: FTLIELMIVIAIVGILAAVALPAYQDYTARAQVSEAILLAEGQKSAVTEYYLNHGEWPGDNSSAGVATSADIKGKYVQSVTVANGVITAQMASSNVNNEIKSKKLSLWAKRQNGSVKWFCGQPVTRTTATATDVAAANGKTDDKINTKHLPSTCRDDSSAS

B1: F10 nanobody (VHH)
VHH: QLQLVESGGGLVQPGGSLRLSCAASGFTLDQYAIGWFRQAPGKEREGVSCISSRGGATNYAHSVKGRFTISRDNAKNTVYLQMNSLKPEDTAVYYCAAGVYTIVTGTGPEDGMDYWGKGTLVTVSS
**Q.** How did the inhibition of type IV pili-dependent bacterial auto-aggregation (blocks the pilus-pilus interaction, m1 with m1); indicated amounts of nanobody, Fig. 3c [1] turn out when B1 was run?
**A.** 5 µg/mL

**Q.** What about the stoichiometry N [2] of the same binder?
**A.** 1

B2: C24 nanobody (VHH)
VHH: QLQLVESGGGLVQPGGSLRLSCASSGFRSDYYAIVWFRQAPGKEREGVSCISTSGKTTIYADSVKGRFTISRDNAKNTVYLQMNSLKPEDTAVYYCAADFRGSRLSDVCSYSSMDYWGKGTLATVSS
**Q.** Which results are given for B2?
**A.** inhibition of type IV pili-dependent bacterial auto-aggregation (blocks the pilus-pilus interaction, m1 with m1); indicated amounts of nanobody, Fig. 3c [1]: 5 µg/mL; stoichiometry N [2]: 1

B3: C24_S112-114G nanobody (VHH)
VHH: B2 VHH with S110G, S112G
notes: as the chain of m8 (C24) with the two stated changes; also called C24 S112G S114G double mutant; source: E. coli BL21 (DE3)/pLysS (plasmid pET26b-C24 mutated), purified; not shown: His tag, C-terminal, kept
**Q.** Does B3 bind [3]?
**A.** binds
